Assays:
Settings in all cases: protein: recombinant; chain copies: 2; blunt; as printed S2 is not the exact complement of S1: 2 mismatches at S1 positions 34-35 (possible typo)
[1] = target: T1, DNA topoisomerase II alpha, full length (human, UniProt P11388 1-1531); test: fluorescence anisotropy; 10 mM MgCl2; 50 mM Tris pH 8, 5% glycerol, 50 mM KCl, 1% Triton X-100, 100 µg/ml acetylated BSA, 20°C; HEX oligo printed as 1 µM; 10 mM MgCl2 or CaCl2 where described
[2] = target: T2, DNA topoisomerase II beta, full length (human, UniProt Q02880 1-1626); test: as above
T2 sequence (Q02880 whole entry): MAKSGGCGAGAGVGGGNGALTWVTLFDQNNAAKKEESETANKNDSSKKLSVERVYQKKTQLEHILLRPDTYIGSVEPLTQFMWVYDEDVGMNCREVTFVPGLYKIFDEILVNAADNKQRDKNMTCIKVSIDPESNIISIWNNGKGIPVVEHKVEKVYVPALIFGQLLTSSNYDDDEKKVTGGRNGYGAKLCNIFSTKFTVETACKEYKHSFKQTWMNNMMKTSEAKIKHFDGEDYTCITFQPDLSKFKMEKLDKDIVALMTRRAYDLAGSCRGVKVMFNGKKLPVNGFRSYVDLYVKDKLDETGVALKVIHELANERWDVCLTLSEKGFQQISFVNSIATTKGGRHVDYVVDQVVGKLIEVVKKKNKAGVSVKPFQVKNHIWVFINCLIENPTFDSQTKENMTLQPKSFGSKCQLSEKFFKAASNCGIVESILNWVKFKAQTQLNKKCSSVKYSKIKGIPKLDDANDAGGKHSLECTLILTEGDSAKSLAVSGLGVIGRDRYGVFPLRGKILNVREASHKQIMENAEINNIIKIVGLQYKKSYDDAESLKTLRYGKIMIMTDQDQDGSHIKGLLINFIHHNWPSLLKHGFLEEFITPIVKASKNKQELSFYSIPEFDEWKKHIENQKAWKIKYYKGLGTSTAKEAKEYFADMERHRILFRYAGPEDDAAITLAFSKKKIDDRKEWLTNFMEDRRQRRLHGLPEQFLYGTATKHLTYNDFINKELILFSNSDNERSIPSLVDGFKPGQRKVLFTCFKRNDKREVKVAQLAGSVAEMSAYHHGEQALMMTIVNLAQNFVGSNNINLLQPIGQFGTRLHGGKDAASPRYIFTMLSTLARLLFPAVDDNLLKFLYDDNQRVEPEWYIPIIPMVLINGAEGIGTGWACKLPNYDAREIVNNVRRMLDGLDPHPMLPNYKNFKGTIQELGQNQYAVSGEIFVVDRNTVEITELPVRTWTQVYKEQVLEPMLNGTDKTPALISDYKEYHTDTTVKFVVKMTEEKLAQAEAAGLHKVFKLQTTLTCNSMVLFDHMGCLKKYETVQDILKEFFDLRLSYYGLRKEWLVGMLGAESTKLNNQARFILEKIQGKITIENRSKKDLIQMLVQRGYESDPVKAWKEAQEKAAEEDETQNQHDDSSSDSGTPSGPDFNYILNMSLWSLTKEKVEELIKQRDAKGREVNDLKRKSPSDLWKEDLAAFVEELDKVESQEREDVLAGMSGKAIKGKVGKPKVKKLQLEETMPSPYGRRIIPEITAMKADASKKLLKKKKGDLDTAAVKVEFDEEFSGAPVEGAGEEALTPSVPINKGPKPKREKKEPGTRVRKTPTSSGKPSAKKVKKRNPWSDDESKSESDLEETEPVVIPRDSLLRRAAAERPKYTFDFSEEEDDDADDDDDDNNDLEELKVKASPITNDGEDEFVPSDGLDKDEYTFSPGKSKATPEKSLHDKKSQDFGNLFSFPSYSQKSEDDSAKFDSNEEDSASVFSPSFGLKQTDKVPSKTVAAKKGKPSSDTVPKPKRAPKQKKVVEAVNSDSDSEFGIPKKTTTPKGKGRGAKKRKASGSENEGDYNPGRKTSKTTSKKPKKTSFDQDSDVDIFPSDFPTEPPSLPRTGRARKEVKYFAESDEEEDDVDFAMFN

[3] = target: T1, DNA topoisomerase II alpha, full length; test: fluorescence anisotropy; 50 mM Tris pH 8, 5% glycerol, 50 mM KCl, 1% Triton X-100, 100 µg/ml acetylated BSA, 20°C; HEX oligo printed as 1 µM; 10 mM MgCl2 or CaCl2 where described
[4] = target: T2, DNA topoisomerase II beta, full length; test: as above
[5] = target: Truncated topoisomerase II alpha (C-terminal domain deleted) (human, UniProt P11388 29-1242); test: as above
[6] = target: Truncated topoisomerase II beta (C-terminal domain deleted) (human, UniProt Q02880 51-1268); test: as above
Truncated topoisomerase II beta (C-terminal domain deleted), sequence (Q02880 51-1268, stated change not applied): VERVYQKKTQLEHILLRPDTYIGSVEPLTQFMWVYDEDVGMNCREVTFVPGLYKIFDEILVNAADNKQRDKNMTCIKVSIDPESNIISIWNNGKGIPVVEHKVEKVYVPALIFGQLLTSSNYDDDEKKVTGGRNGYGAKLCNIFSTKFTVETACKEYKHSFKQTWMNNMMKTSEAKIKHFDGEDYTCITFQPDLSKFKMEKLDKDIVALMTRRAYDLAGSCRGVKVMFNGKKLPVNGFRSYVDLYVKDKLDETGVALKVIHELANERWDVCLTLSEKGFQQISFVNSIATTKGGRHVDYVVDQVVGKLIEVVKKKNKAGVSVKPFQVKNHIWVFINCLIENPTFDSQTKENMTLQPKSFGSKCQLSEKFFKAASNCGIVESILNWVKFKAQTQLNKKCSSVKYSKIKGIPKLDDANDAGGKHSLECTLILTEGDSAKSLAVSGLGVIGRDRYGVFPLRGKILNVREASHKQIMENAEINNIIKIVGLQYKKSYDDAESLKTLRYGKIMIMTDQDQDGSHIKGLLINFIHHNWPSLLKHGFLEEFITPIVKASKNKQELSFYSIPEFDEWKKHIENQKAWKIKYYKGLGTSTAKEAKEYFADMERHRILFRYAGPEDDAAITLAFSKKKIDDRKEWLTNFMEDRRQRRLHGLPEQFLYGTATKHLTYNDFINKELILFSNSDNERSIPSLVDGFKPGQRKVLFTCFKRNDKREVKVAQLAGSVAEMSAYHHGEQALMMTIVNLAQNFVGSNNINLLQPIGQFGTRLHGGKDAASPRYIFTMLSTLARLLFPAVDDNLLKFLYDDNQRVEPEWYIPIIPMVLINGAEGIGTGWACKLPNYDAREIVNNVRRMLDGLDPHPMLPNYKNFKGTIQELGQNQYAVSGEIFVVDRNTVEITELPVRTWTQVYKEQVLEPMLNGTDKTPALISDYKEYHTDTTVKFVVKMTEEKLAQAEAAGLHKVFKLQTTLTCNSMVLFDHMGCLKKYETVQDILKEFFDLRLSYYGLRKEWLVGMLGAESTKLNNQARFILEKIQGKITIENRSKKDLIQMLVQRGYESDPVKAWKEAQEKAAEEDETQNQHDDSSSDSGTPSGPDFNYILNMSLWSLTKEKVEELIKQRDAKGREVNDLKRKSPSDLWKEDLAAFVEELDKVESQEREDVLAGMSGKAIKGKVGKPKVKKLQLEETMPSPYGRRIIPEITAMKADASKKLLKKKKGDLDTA

[7] = target: T1, DNA topoisomerase II alpha, full length; test: fluorescence anisotropy; no metal; 50 mM Tris pH 8, 5% glycerol, 50 mM KCl, 1% Triton X-100, 100 µg/ml acetylated BSA, 20°C; HEX oligo printed as 1 µM; 10 mM MgCl2 or CaCl2 where described
[8] = target: T2, DNA topoisomerase II beta, full length; test: as above
[9] = target: T1, DNA topoisomerase II alpha, full length; test: fluorescence anisotropy; 10 mM CaCl2; 50 mM Tris pH 8, 5% glycerol, 50 mM KCl, 1% Triton X-100, 100 µg/ml acetylated BSA, 20°C; HEX oligo printed as 1 µM; 10 mM MgCl2 or CaCl2 where described
[10] = target: T2, DNA topoisomerase II beta, full length; test: as above

T1 sequence (P11388 whole entry): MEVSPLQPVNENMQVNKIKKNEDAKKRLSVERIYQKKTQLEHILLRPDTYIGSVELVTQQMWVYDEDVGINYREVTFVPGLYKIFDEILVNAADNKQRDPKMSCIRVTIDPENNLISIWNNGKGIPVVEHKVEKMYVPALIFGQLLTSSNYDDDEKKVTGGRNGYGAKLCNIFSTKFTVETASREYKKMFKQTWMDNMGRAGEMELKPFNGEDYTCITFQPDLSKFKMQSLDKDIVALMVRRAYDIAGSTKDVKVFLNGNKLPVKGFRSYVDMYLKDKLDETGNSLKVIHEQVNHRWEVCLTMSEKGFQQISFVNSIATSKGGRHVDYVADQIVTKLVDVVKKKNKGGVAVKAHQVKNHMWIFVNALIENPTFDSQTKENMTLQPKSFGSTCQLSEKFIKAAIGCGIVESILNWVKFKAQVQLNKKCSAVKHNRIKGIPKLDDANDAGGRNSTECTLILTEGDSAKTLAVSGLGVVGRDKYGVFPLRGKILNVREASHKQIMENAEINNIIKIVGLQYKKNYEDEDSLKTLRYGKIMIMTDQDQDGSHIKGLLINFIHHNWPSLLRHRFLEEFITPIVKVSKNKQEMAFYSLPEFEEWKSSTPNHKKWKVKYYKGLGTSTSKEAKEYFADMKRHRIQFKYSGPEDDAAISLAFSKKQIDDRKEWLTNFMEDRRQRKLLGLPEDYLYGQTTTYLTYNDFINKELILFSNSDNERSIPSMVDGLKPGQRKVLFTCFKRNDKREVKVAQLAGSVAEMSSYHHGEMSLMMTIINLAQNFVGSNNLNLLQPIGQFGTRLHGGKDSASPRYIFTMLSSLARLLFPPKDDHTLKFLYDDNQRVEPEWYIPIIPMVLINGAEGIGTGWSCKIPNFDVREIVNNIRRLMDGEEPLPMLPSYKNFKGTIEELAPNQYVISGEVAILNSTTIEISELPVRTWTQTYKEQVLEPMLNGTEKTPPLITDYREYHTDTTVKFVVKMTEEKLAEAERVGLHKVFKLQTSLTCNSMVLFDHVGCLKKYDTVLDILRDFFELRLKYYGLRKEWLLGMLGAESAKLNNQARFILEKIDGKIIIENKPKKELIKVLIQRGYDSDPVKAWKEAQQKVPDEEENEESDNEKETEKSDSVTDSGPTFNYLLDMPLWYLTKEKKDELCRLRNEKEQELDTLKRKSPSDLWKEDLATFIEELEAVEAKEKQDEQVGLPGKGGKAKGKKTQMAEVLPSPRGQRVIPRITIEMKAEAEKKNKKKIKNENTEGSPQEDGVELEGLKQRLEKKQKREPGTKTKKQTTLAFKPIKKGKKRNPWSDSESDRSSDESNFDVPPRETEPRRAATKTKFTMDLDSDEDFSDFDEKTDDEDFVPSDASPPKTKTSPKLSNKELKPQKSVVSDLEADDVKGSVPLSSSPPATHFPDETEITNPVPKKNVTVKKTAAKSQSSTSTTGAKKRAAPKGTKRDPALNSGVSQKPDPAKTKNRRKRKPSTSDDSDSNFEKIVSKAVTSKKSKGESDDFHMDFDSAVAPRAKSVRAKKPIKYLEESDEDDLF

B1: 40 bp oligo AB (dsDNA)
DNA 1: CGCAATCTGACAATGCGCTCATCGTCATCCTCGCGACGCG
DNA 2: CGCGTGCCGAGGATGACGATGAGCGCATTGTCAGATTGCG
**Q.** How did the Kd [1] turn out when B1 was run?
**A.** 0.15 µM

**Q.** And the Kd [2]?
**A.** 0.0554 µM

**Q.** What about the Kd [3] of the same binder?
**A.** 0.189 µM

**Q.** What about the Kd [4] of the same binder?
**A.** 0.0729 µM

**Q.** What about the Kd [5] of the same binder?
**A.** 0.116 µM

**Q.** What about the Kd [6] of the same binder?
**A.** 0.0178 µM

**Q.** And the Kd [7]?
**A.** 0.161 µM

**Q.** And the Kd [8]?
**A.** 0.0464 µM

**Q.** What about the Kd [9] of the same binder?
**A.** 0.178 µM

**Q.** What about the Kd [10] of the same binder?
**A.** 0.0843 µM
